Source: publication PMC5430633, “Phosphorylation of the mitochondrial autophagy receptor Nix enhances its interaction with LC3 proteins” (Scientific Reports, 2017)

B1: p62 LIR peptide (peptide)
chain: RPEEQMESDNCSGGDDDWTHLS
B2: Nix LIR P0 peptide (unphosphorylated) (peptide)
peptide: AGLNSSWVELPMNSSNG
notes: Nix LIR motif peptide without phosphorylation of Ser34 and Ser35; also called non-phosphorylated P0 peptide; source: synthetic peptide, bought: GenScript USA Inc, 95% pure

Key:
Settings in all cases: both partners purified
[1] = molecular target: T1, LC3B wild type (for ITC and NMR) (human, UniProt Q9GZQ8 1-120); experiment: ITC; 25 °C, VP-ITC; peptides 0.31 mM titrated into 0.018 mM LC3B proteins in 25 steps; 40 mM Na2HPO4, 80 mM NaCl, pH 7.0; one-site binding model
LC3B K51A (for ITC) = LC3B K51A (for ITC) (human, UniProt Q9GZQ8 1-120, K51A); experiment: as above
LC3B R11A (for ITC) = LC3B R11A (for ITC) (human, UniProt Q9GZQ8 1-120, R11A); experiment: as above
LC3B K49A (for ITC) = LC3B K49A (for ITC) (human, UniProt Q9GZQ8 1-120, K49A); experiment: as above
[2] = molecular target: T1, LC3B wild type (for ITC and NMR); experiment: ITC; rows marked WT*: previous set of conditions reported by Novak et al.: 50 mM NaPi, 150 mM NaCl, pH 7.5
[3] = molecular target: LC3B wild type (for ITC and NMR) (human, UniProt Q9GZQ8 1-120); experiment: ITC; 25 °C, VP-ITC; peptides 0.31 mM titrated into 0.018 mM LC3B proteins in 25 steps; 40 mM Na2HPO4, 80 mM NaCl, pH 7.0; one-site binding model; remark: listed apart in the source

Row | Binder | Ka [1] | Kd [1] | dH [1] | stoichiometry N [1] | Ka (LC3B K51A (for ITC)) | Kd (LC3B K51A (for ITC)) | dH (LC3B K51A (for ITC)) | Ka (LC3B R11A (for ITC)) | Kd (LC3B R11A (for ITC)) | dH (LC3B R11A (for ITC)) | stoichiometry N (LC3B R11A (for ITC)) | Ka (LC3B K49A (for ITC)) | Kd (LC3B K49A (for ITC)) | dH (LC3B K49A (for ITC)) | stoichiometry N (LC3B K49A (for ITC)) | Ka [2] | Kd [2] | dH [2] | stoichiometry N [2] | Kd [3]
1 | B1 | 498000 M⁻¹ | 2.01 µM | -9.38 ± 0.17 kcal/mol | 1.04 ± 0.01 | 34000 M⁻¹ | 29 µM | -4.7 ± 0.01 kcal/mol | 233000 M⁻¹ | 4.29 µM | -8.22 ± 0.23 kcal/mol | 1.06 ± 0.02 | 1.02e+06 M⁻¹ | 0.98 µM | -10.84 ± 0.01 kcal/mol | 0.99 ± 0.01 | 680000 M⁻¹ | 1.47 µM | -10.5 ± 0.13 kcal/mol | 0.99 ± 0.01 | 
2 | B2 |  |  |  |  |  |  |  |  |  |  |  |  |  |  |  |  |  |  |  | 99 µM
